Assay results reported in patent publication US20200347144A1 (SHANGHAI HYAMAB BIOTECH, published 2020).

T1: mouse 4-1BB protein (extracellular domain) (mouse, UniProt P20334 24-187)
T1 construct: extracellular domain; also called mouse 4-1BB-his; mouse 4-1BB-hFc protein
T1 sequence (looked up): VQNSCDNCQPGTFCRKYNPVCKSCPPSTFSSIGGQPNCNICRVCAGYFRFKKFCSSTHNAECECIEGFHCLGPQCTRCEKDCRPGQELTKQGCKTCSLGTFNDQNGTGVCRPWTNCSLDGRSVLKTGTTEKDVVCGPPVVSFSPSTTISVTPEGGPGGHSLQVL

B1: 118F3A2 (antibody, V domains shown)
VH: QVQLQQWGAGLLKPSETLSLTCGVYGGSFSTNYWSWIRQSPGKGLEWIGEINHSGNTEYNPSLKSRLTISIDTSKNQFSLKLTSVTAADTAVYYCARMGYHSPSFDFWGQGVLVTVSS
VL: KIVMTQSPATLSVSPGERATLPCRVSQGIGSNLAWYQQKPGQAPRLLIYGASTRATGVPARFSGSGSGSEFTLTISSLQSEDLALYYCQQYNNWPLTFGGGTKVEIK
B2: 113F6C6 (antibody, V domains shown)
VH: QVQLVESGGGVVQPGRSLRLSCAASGLTFSSYGMHWVRQAPGKGLEWVAVIWYDGSNKYYADSVKGRFTISRDNSKNTLYLQMNSLRAEDTAVYYCAREEVLWFGELSYNYYYGMDVWGQGTTVTVSS
VL: DIQMTQSPSSLSASVGDRVTITCRASQGISNYLAWYQQKPGKVPKLLIYAASTLQSGVPSRFSGSGSGTDFTLTISSLQPEDVATYYCQKYNSVPLTFGGGTKVEIK
notes: also called 4-1BB fully human antibody 113F6C6; 113F6F6
B3: 172E3E3 (antibody, V domains shown)
VH: QVQLQESGPGLVKPSGTLSLTCAVSGGSISSSNWWSWVRQPPGKGLEWIGEIYHSGSTNYNPSLKSRVTISVDKSKNQLSLNLSSVTAADTAVYYCARQGGVAGTLYWYFDLWGRGTLVTVSS
VL: DIVMTQSPLSLPVTPGEPASISCRSSQGLLHSNGYNYLDWYLQKPGQSPQLLIYLGSNRASGVPDRFIGSGSGTDFTLKIRRVEAEDVGVYYCMQVLQTPWTFGQGTKVEIK
B4: 57B3D10 (antibody, V domains shown)
VH: QVQLQESGPGLVKPSETLSLTCTVSGGSISSYYWSWIRQPPGKGLEWIGYIYYSGSTNYNPSLKSRVTISVDTSKSQFSLKLTSVTAADTAVYYCAKDSDYYGSGSYSYWYFDLWGRGTLVTVSS
VL: EIVMTQSPATLSVSPGERATLSCRASQSVSSNLAWYQQKPGQAPRLLIYGASTRAPGIPARFSGSGSGTEFTLTISSLQSEDFAVYYCQQYNNWPLTFGGGTKVEIK
notes: also called 4-1BB fully human antibody 57B3D10
B5: 170D7F2 (antibody, V domains shown)
VH: QVQLVQSGAEVKKPGASVKVSCKASGYTFTSYDINWVRQATGQGLEWMGWMNPNSGNTGYAQKFQGRVTMTRNTSISTAYMELSSLRSEDTAVYYCARETGPFDYWGQGTLVTVSS
VL: DIQMTQSPSSLSASVGDRVTITCRASQRINNYLNWYQQKPGKAPKLLIYGASSLQSGVPSRFSGSGSGTDFTLTISSLQPEDFATYYCQQSYSTPFTFGPGTKVDIK

Experiments:
[1] = molecular target: T1, mouse 4-1BB protein (extracellular …); assay: ELISA, coated mouse 4-1BB; Ab 2 ug/ml
Method: (§1) The purified immunogen A (4-1BB-hFc), monkey 4-1BB-his, and mouse 4-1BB-his obtained in Example 1 [for the preparation method, see step 1 of Example 1, preparation of immunogen A], of which the extracellular domain of monkey-derived 4-1BB protein (purchased from ACRO biosystems), the extracellular domain of mouse 4-1BB protein (purchased from sino biological) or other immune detection point proteins respectively were diluted with PBS to a final concentration of 1.0 μg/mL, then added with […] per well to 96-well ELISA plate. It was sealed with plastic film and incubated at 4° C. overnight. The next day, the plate was washed twice with the plate-washing solution [PBS containing 0.01% (v/v) Tween20] and blocking solution [PBS containing 0.01% (v/v) Tween 20 and 1% (v/v) BSA] was added and blocked at room temperature for 2 hours. The blocking solution was discarded and 100 μl of the purified 4-1BB antibody obtained in Example 2 was added per well. After incubated at 37° C. for 2 hours, the plate was washed 3 times with a plate-washing solution [PBS containing 0.01% (v/v) Tween20]. A secondary antibody (purchased from Sigma) labeled with HRP (horseradish peroxidase) was added, and after incubated at 37° C. for 2 hours, the plate was washed 3 times with a plate-washing solution [PBS containing 0.01% (v/v) Tween20]. 100 μl of TMB substrate was added per well. After incubated for 30 minutes at room temperature, 100 μl of stop buffer (1.0N HCl) was added per well. The A450 nm values were read using an ELISA plate reader (SpectraMax 384plus, Molecular Device).

[2] = molecular target: T1, mouse 4-1BB protein (extracellular …); assay: ELISA, coated mouse 4-1BB; Ab 0.0006 ug/ml
Method: as §1

[3] = molecular target: T2, human 4-1BB, full length, on transfected cells (human, UniProt Q07011 24-255); assay: cell-based or functional assay
[4] = molecular target: T3, his-tagged human 4-1BB protein antigen (human, UniProt Q07011 24-186); assay: SPR (Biacore T200), antibody captured on anti-human Fc, his-tagged human 4-1BB as analyte
T3 construct: not shown: his tag
Text: The Biacore T200 instrument (purchased) was used to determine the affinity constant. The specific operation and method were based on the instrument manual and the detailed method provided by the manufacturer. Sensors labeled with anti-human Fc were combined with anti-4-1BB fully human antibodies to detect the binding and dissociation of five different gradients of his-tagged human 4-1BB protein antigen. Then software was used to fit the dissociation constant and the binding constant. The affinity constant is the ratio of the dissociation constant and the binding constant.

[5] = molecular target: T2, human 4-1BB, full length, on …; assay: FACS blocking assay on CHOK1-h4-1BB cells: antibody titrated against his-muCD8a-4-1BBL, bound ligand detected with Alexa 488 anti-mouse CD8a; inhibition rate (%) relative to human IgG
Method: It was washed three times with FACS buffer by centrifugation, and 100 μl of fixative [4% (v/v) paraformaldehyde] per well was added to suspend cells, and it was washed twice with FACS buffer by centrifugation after 10 minutes. The cells were suspended with 100 microliters of FACS buffer, and the results were detected and analyzed with FACS (FACS Calibur, purchased from BD). […] The IgG control is human IgG, and the data in the table is the inhibition rate of the ligand binding by the fully human 4-1BB antibody relative to the control group (human IgG).

T2 sequence (Q07011 24-255): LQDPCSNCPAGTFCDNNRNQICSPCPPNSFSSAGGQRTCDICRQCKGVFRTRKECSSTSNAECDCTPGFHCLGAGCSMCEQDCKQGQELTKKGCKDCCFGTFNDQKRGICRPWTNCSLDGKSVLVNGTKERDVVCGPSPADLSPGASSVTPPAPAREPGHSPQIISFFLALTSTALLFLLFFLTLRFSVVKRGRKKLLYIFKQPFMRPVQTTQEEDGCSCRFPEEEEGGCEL

| Binder | OD450 nm [1] [OD450 nm] | OD450 nm [2] [OD450 nm] | NFκB luciferase reporter, 4-1BB+ HEK293; EC50; cross-linked [3] [nM] | NFκB luciferase reporter, 4-1BB+ HEK293; fluorescence multiple vs human IgG; cross-linked; Ab 0.00013 ug/ml [3] [fold] | NFκB luciferase reporter, 4-1BB+ HEK293; fluorescence multiple vs human IgG; cross-linked; Ab 0.00064 ug/ml [3] [fold] | NFκB luciferase reporter, 4-1BB+ HEK293; fluorescence multiple vs human IgG; cross-linked; Ab 0.0032 ug/ml [3] [fold] | NFκB luciferase reporter, 4-1BB+ HEK293; fluorescence multiple vs human IgG; cross-linked; Ab 0.016 ug/ml [3] [fold] | NFκB luciferase reporter, 4-1BB+ HEK293; fluorescence multiple vs human IgG; cross-linked; Ab 0.08 ug/ml [3] [fold] | NFκB luciferase reporter, 4-1BB+ HEK293; fluorescence multiple vs human IgG; cross-linked; Ab 0.4 ug/ml [3] [fold] | NFκB luciferase reporter, 4-1BB+ HEK293; fluorescence multiple vs human IgG; cross-linked; Ab 2 ug/ml [3] [fold] | NFκB luciferase reporter, 4-1BB+ HEK293; fluorescence multiple vs human IgG; cross-linked; Ab 10 ug/ml [3] [fold] | NFκB luciferase reporter, 4-1BB+ HEK293; fluorescence multiple vs human IgG; non-cross-linked; Ab 0.00013 ug/ml [3] [fold] | NFκB luciferase reporter, 4-1BB+ HEK293; fluorescence multiple vs human IgG; non-cross-linked; Ab 0.00064 ug/ml [3] [fold] | NFκB luciferase reporter, 4-1BB+ HEK293; fluorescence multiple vs human IgG; non-cross-linked; Ab 0.0032 ug/ml [3] [fold] | NFκB luciferase reporter, 4-1BB+ HEK293; fluorescence multiple vs human IgG; non-cross-linked; Ab 0.016 ug/ml [3] [fold] | NFκB luciferase reporter, 4-1BB+ HEK293; fluorescence multiple vs human IgG; non-cross-linked; Ab 0.08 ug/ml [3] [fold] | NFκB luciferase reporter, 4-1BB+ HEK293; fluorescence multiple vs human IgG; non-cross-linked; Ab 0.4 ug/ml [3] [fold] | NFκB luciferase reporter, 4-1BB+ HEK293; fluorescence multiple vs human IgG; non-cross-linked; Ab 2 ug/ml [3] [fold] | NFκB luciferase reporter, 4-1BB+ HEK293; fluorescence multiple vs human IgG; non-cross-linked; Ab 10 ug/ml [3] [fold] | Kd [4] [nM] | also measured |
| --- | --- | --- | --- | --- | --- | --- | --- | --- | --- | --- | --- | --- | --- | --- | --- | --- | --- | --- | --- | --- | --- |
| B1 | 0.12 | 0.05 | – | – | – | – | – | – | – | – | – | – | – | – | – | – | – | – | – | – | – |
| B2 | 0.18 | 0.05 | 0.41 | 0.7 | 1.3 | 2.15 | 6.55 | 14.6 | 14.8 | 17.1 | 13.6 | 1.25 | 0.95 | 1.3 | 4.35 | 12.7 | 12.1 | 23 | 22.1 | 17.6 | NFκB luciferase reporter, 4-1BB+ HEK293; EC50; non-cross-linked [3]: 3.46 nM; koff [4]: 0.03 s⁻¹; kon [4]: 1.68e+06 M⁻¹ s⁻¹ |
| B3 | 0.12 | 0.05 | – | – | – | – | – | – | – | – | – | – | – | – | – | – | – | – | – | – | – |
| B4 | 0.1 | 0.05 | 0.94 | 0.9 | 1.15 | 1.1 | 2.35 | 3.3 | 3.6 | 5.55 | 4.3 | 0.95 | 0.9 | 1.4 | 1.4 | 2.7 | 3.5 | 5 | 7.5 | 21.5 | koff [4]: 0.0124 s⁻¹; kon [4]: 574000 M⁻¹ s⁻¹; IC50 (read off the curve) [5]: ~2 µg/mL |
| B5 | 0.11 | 0.05 | – | – | – | – | – | – | – | – | – | – | – | – | – | – | – | – | – | – | – |
